Experimental data: US20200230173A1 (US Dept. of Health and Human Services, published 2020)

Molecular target: T1, human TNFR2-Fc fusion protein (human, UniProt P20333 23-257)
T1 construct: not shown: Fc part
T1 sequence (looked up): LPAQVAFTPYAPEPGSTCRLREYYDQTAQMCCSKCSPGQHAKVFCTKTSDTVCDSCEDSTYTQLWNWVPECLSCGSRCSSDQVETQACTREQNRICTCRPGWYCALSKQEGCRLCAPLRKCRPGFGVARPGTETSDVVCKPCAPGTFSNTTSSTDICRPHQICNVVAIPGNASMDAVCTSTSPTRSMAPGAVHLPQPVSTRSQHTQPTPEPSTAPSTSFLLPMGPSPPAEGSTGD
Assay: selection from a phage display scFv library on human TNFR2-Fc

binding result: binds
B1: human TNFR2-specific monoclonal antibody E4 (antibody, V domains shown)
VH: QITLKESGPTLVKPTQTLTLTCTFSGFSLTTSGVGVGWIRQPPGKALEWLALIYWDDDKRYSPSLKSRLTITKDTSKNQVVLTMTNMDPVDTATYYCAHLDGSGSLDYWGQGTLVTVSS
VL: QSVLTQPPSASGTPGQRVTISCSGSTSNIGRNSVNWYSHLPGAAPKLLISGNDQRPSGVPDRFSGSKSDNTASLTVSGLQAEDEAHYYCSSSAANLGVFGGGTKLTVLG
